Experiment [1] addresses T1, ovine FAP (oFAP) extracellular domain (ECD) (sheep).
T1 construct: also called oFAP-ECD
T1 chain: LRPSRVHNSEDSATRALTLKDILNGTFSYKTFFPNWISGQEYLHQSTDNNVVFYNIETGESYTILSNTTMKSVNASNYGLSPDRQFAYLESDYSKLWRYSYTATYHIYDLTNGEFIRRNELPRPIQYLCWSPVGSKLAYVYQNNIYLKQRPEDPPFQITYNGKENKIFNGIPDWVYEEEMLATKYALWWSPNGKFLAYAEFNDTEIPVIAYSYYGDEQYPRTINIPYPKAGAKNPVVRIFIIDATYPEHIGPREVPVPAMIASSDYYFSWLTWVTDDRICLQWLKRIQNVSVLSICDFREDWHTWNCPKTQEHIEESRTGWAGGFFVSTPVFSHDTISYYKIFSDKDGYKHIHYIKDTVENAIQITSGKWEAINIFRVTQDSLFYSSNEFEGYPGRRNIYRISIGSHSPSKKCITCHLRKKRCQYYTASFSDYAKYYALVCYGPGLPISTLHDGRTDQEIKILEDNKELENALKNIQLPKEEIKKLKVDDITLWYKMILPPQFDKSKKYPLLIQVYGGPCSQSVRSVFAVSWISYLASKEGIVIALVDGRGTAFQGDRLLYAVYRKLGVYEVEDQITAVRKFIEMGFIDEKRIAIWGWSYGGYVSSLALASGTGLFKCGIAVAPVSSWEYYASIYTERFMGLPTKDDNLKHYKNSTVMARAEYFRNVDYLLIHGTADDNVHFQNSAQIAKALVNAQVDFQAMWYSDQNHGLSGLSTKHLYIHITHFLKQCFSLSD
Description: ELISA, 120 nM oFAP-ECD coated on Maxisorp plates. The procedure:
(§1) Cross-reactivity of the anti-hFAP antibodies with oFAP-ECD and pFAP-ECD was tested using ELISA. 120 nM of oFAP-ECD or pFAP-ECD was coated on Maxisorp plates overnight at 4° C. […] Specifically, the C5 antibody was employed in IgG2a format, while all other antibodies, including the 7NP2 antibody, were in IgG1 format. The differences between the IgG2a and IgG1 formats are not expected to affect binding to FAP. After 3 washes with PBS, binding of the antibodies to oFAP-ECD and pFAP-ECD was detected using an anti-human or anti-murine antibody HRP conjugate.
(An ELISA detects its analyte on a solid surface through an enzyme-linked reagent.)

For experiment [2], the target named is T2, human FAP expressed on transduced cells (SKRC52-hFAP, HT-1080-hFAP) (human, UniProt Q12884 1-760).
T2 construct: whole, on cells; Also the target in SKRC52-hFAP tumor cryosections and in tumors of tumor-bearing mice; also called cell-expressed human FAP
T2 sequence (looked up): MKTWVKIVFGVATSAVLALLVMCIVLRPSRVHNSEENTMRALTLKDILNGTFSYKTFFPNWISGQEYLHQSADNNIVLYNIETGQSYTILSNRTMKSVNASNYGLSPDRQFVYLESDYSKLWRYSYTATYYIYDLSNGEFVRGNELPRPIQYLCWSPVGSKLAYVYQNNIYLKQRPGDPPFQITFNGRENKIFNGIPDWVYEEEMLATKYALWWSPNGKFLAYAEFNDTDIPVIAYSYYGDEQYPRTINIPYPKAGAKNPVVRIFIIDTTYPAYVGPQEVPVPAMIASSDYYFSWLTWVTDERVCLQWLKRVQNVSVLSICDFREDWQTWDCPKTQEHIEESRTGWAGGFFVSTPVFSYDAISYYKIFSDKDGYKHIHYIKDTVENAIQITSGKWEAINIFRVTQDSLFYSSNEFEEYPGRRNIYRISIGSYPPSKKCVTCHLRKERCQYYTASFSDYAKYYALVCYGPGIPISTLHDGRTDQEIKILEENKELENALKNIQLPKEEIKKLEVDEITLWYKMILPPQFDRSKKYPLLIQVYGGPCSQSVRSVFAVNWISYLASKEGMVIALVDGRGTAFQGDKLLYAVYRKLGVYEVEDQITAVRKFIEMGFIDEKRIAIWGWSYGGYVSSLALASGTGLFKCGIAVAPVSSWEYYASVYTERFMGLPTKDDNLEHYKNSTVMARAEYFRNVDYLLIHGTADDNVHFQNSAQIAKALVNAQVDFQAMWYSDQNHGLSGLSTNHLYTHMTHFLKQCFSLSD
Description: immunofluorescence on SKRC52-hFAP tumor cryosections, FITC conjugate at 10 ug/mL. How it is done: Immunofluorescence experiments were performed with 7NP2 and KSF (negative control), both in IgG1 format on cryosections of renal cell carcinoma SKRC52-hFAP tumor tissue slides, which were transduced to express human FAP. The 7NP2 and KSF IgG1 molecules were conjugated to FITC to allow detection. Cryostat sections (10 μm) were stained using the 7NP2 and KSF IgG1 conjugates at a final concentration of 10 μg/mL and detected with rabbit anti-FITC and goat anti-rabbit AlexaFluor488 antibody. Slides were mounted with fluorescent mounting medium and analyzed with a microscope (FIG. 5).

Experiment [3] deals with T1, ovine FAP (oFAP) extracellular domain …. Description: ELISA, 120 nM oFAP-ECD coated, antibody at 5 ug/mL. The procedure: as §1

B1: anti-hen egg lysozyme antibody KSF in IgG1 format (antibody, V domains shown)
VH: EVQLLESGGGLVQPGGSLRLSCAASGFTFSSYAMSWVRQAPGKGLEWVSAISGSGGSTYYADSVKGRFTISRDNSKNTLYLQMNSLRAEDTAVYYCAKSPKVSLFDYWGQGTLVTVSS
VL: SSELTQDPAVSVALGQTVRITCQGDSLRSYYASWYQQKPGQAPVLVIYGKNNRPSGIPDRFSGSSSGNTASLTITGAQAEDEADYYCQSSPLNRLAVVFGGGTKLTVLG
notes: Negative control; It was conjugated to FITC in the immunofluorescence and ex vivo experiments; also called KSF IgG1; KSF(IgG1)
For the molecule B1, in experiment [1], the binding result is “no binding (tested: 5 µg/mL)”.

B2: anti-FAP antibody 7NP2 in IgG1 format (antibody, V domains shown)
VH: EVQLLESGGGLVQPGGSLRLSCAASGFTFSSYAMSWVRQAPGKGLEWVSAIGSVGGPTYYADSVKGRFTISRDNSKNTLYLQMNSLRAEDTAVYYCAKRLAWFDYWGQGTLVTVSS
VL: EIVLTQSPGTLSLSPGERATLSCRASQSVSSSYLAWYQQKPGQAPRLLIYGASSRATGIPDRFSGSGSGTDFTLTISRLEPEDFAVYYCQQSGKGPLTFGQGTKVEIKR
notes: also called 7NP2 IgG1; 7NP2(IgG1)
Regarding B2, the binding result in experiment [2] and in experiment [3] was “binds” in each case.
